# No end group written: not given here.
# T1: Hair Keratin KRTHB1 Basic (UniProt Q14533 304-505, limits assumed)
# T1 construct: The keratin was printed onto a bare gold SPRi chip; also called natural hair keratin
# T1 sequence (looked up): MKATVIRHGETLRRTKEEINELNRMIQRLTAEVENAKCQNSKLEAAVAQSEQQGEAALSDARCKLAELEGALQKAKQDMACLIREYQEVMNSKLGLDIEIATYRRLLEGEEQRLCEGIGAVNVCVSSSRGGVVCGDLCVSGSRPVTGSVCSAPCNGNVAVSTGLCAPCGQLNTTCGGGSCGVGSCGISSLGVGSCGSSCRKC
# Experiments:
# [1] = target: T1, Hair Keratin KRTHB1 Basic; test: SPRi (PlexArray HT), rank among the three peptides tested on keratin
# Procedure: (§1) Various concentrations of Keratin dissolved in water were manually printed onto the bare gold coated (thickness 47 nm) PlexArray Nanocapture Sensor Chip (Plexera Bioscience, Seattle, Wash., US) at 40% humidity. Each concentration was printed in replicate, and each spot contained 0.2 uL of […] solution. The chip was incubated in 80% humidity at 4° C. for overnight, and rinsed with 10×PBST for 10 min, 1×PBST for 10 min, and deionized water twice for 10 min. The chip was then blocked with 5% (w/v) non-fat milk in water overnight, and washed with 10×PBST for 10 min, 1×PBST for 10 min, and deionized water twice for 10 min before being dried under a stream of nitrogen prior to use. SPRi measurements were performed with PlexAray HT (Plexera Bioscience, Seattle, Wash., US). Collimated light (660 nm) passes through the coupling prism, reflects off the SPR-active gold surface, and is received the CCD camera. Buffers and samples were injected by a non-pulsatile piston pump into the 30 uL flowcell that was mounted on the coupling prim. Each measurement cycle contained four steps: washing with PBST running buffer at a constant rate of 2 uL/s to obtain a stable baseline, sample injection at 5 uL/s for binding, surface washing with PBST at 2 uL/s for 300 s, and regeneration with 0.5% (v/v) H3PO4 at 2 uL/s for 300 s. All the measurements were performed at 4° C. The signal changes after binding and washing (in AU) are recorded as the assay value. Selected protein-grafted regions in the SPR images were analyzed, and the average reflectivity variations of the chosen areas were plotted as a function of time. Real-time binding signals were recorded and analyzed by Data Analysis Module (DAM, Plexera Bioscience, Seattle, Wash., US). Kinetic analysis was performed using BIAevaluation 4.1 software (Biacore, Inc.).
# [2] = target: T1, Hair Keratin KRTHB1 Basic; test: SPRi (PlexArray HT), keratin printed on gold chip, peptide injected, 4 C
# Procedure: as §1
# [3] = target: T1, Hair Keratin KRTHB1 Basic; test: SPRi (PlexArray HT), keratin printed on the gold chip, peptide injected; kinetic fit with BIAevaluation 4.1; five curves labelled 5.68 to 91.2 nM
# Procedure: as §1
Affinity Ranking [1],Kd [2] [nM],koff [3] [s⁻¹],kon [3] [M⁻¹ s⁻¹],Binder
1,365,0.000478,1310,FCGFPSCSTSG (also called Aquis peptide 1; Peptide Aquis 1) [Aquis Pep1]
3,2500,0.0206,8240,CTPPSCCQLHHA (also called Aquis peptide 2; Peptide Aquis 2) [Aquis Pep 2]
2,814,0.00692,8500,"GGVCGPSPPCITT (not fully specified; cysteine pairing not given here, Control peptide developed by Khairpep; also called KP peptide; third peptide) [KP]"
